Series [1] relates to integrin receptors expressed on U87MG glioblastoma cells. The series is described as follows: Competition binding with 125I-echistatin to U87MG cells. The note with it: competition with 0.06 nM 125I-echistatin, 2×10^5 U87MG cells, IBB, room temperature, 3 h, gamma counting; average ± SD of experiments on three separate days. Set-up: species or system human. As to the method:
Competition binding assays were performed as previously described, [60] to measure the relative binding affinities of engineered knottin peptides and echistatin. Briefly, 2×10^5 U87MG or K562 cells were incubated with 0.06 nM ^125I-labeled echistatin and varying concentrations of peptides in IBB at room temperature for 3 h. The cell-bound radioactivity remaining after washing was determined by gamma-counting. Half-maximal inhibitory concentration (IC50) values were determined by non-linear regression analysis using KaleidaGraph software (Synergy Software), and are presented as the average of experiments performed on three separate days.

Series [2] in a line: Serum stability in mouse serum (radio-HPLC). It counts as in vitro ADME. The note with it: 50% mouse serum, 37°C, reversed-phase radio-HPLC (Vydac C18), area under the entire peak. The procedure: (§1) Aliquots containing up to 400 µCi of ^64Cu-DOTA-knottin 3-4A were incubated in 50% mouse serum for up to 24 h. At various time points, samples were mixed with an equal volume of 99.9% water/0.1% TFA, further acidified with ∼1% (v/v) TFA, and centrifuged to remove precipitants. Soluble fractions were filtered with a 0.2 µm microcentrifuge filter (Corning Costar Spin-X filter) and analyzed by reversed-phase radio-HPLC using a Vydac C18 column. For metabolic stability analysis, anesthetized nude mice bearing U87MG tumor xenografts were injected with 200–400 µCi of ^64Cu-DOTA-knottin 3-4A via the tail vein, and were euthanized at 1 h post injection. Tumor, kidney, and liver tissues were homogenized with a mortar/pestle in 1 ml DMF. The lysates were acidified, centrifuged, and filtered using a 0.2 µm Costar Spin-X microcentrifuge filter to isolate soluble metabolites. Filtrates were injected onto a Vydac C18 column and analyzed by reversed-phase HPLC. Fractions were collected every 1 min and analyzed by gamma counting to determine the counts per minute (cpm). Urine samples were collected 1 h post injection and were also analyzed by radio-HPLC. The intact radiotracer elutes at approximately 15 min, and the major hydrophilic metabolites and free copper elute with the column dead volume.

Series [3] deals with U87MG tumor xenografts. The series is described as follows: MicroPET imaging in U87MG xenograft mice. It counts as in vivo, mouse. As to the method: (§2) Animal procedures were carried out according to a protocol approved by Stanford University Administrative Panels on Laboratory Animal Care (APLAC Protocol 11580). U87MG glioblastoma cells were maintained at 37°C/5% CO2 in Dulbecco's Modified Eagle Medium, 10% heat-inactivated fetal bovine serum, and penicillin-streptomycin (all from Invitrogen). Female athymic nude mice (nu/nu), obtained at 4–6 weeks of age (Charles River Laboratories, Inc., Wilmington, MA), were injected subcutaneously in the right or left shoulder with ∼10^7 U87MG cells suspended in 100 µL of PBS. Mice were used for in vivo imaging studies when their tumors reached approximately 10 millimeters in diameter.
U87MG tumor-bearing mice (n = 3 or more for each probe) were injected with ∼100 µCi (∼0.5 nmol) of probe via the tail vein and imaged with a microPET R4 rodent model scanner (Siemens Medical, Knoxville, TN) using 5 min static scans. Images were reconstructed by a two-dimensional ordered expectation maximum subset algorithm and calibrated as previously described. ROIs were drawn over the tumor on decay-corrected whole body images using ASIPro VM software (Siemens Medical). ROIs were converted to counts/g/min, and %ID/g values were determined assuming a tissue density of 1 g/mL. No attenuation correction was performed. For the blocking experiments, mice were co-injected with 330 µg (∼0.5 µmol) of unlabeled c(RGDyK), a pentapeptide that binds to αvβ3 and αvβ5 integrins, [62] at a similar receptor binding site as the engineered knottin peptides.

A short description of series [4]: Biodistribution in U87MG xenograft mice (gamma counting). It counts as in vivo, mouse. The note with it: female, athymic nude (nu/nu), mouse, iv, total radioactivity; for tissue to tissue ratio at 4 h: U87MG xenograft mice. As to the method:
as §2
(§3) Anesthetized nude mice bearing U87MG tumor xenografts were injected with ∼50–100 µCi (∼0.25–0.5 nmol) of ^64Cu-DOTA-knottin 3-4A via the tail vein, and were euthanized at 1, 4, and 24 h post injection. Blood, bone, brain, heart, kidney, liver, lung, muscle, pancreas, skin, spleen, and tumor tissue were removed and weighed, and their radioactivity levels (counts per minute) were measured by gamma counting. The radioactivity uptake in the tumor and normal tissue was reported as the percent injected dose per gram (%ID/g) of tissue and represent the mean and standard deviation of experiments performed on three mice. For each mouse, the activity of tissue samples was calibrated against a pre-measured aliquot of the radiotracer and normalized to the whole bodyweight and to the residual radioactivity present in the tail. To test integrin-targeting specificity, U87MG tumor-bearing mice (n = 3) were co-injected with ^64Cu-DOTA-knottin 3-4A and 330 µg (∼0.5 µmol) of unlabeled c(RGDyK), and biodistribution of the radiolabeled peptide was determined 1 h after injection.

For series [5], the system named is U87MG tumor xenografts. Described as above. It counts as in vivo, mouse. As to the method:
as §2, §3

Series [6] can be described thus: In vivo metabolic stability in U87MG xenograft mice (radio-HPLC). Set-up: species or system mouse. As to the method:
as §1

The test system of series [7] is MDA-MB-435 melanoma xenograft. The series can be described thus: Tumor uptake in MDA-MB-435 melanoma xenograft model. Format: in vivo. The note with it: lower αvβ3 integrin levels, data not shown.
Series [8] has as its system integrin receptors expressed on U87MG glioblastoma cells. As to conditions: read-out: IC50, competition binding of 125I-echistatin to U87MG cells; cited from earlier work. The procedure: The engineered knottin peptides were tested for their ability to compete with ^125I-echistatin for binding to integrin receptors expressed on U87MG glioblastoma cells, which express ∼10^5 αvβ3 integrin receptors per cell. Echistatin, a polypeptide found in snake venom, binds to multiple integrin receptors with high affinity, [27] and was used as a positive control. […] Both engineered loops were capable of binding to integrins with high affinity, as confirmed by measurements performed with knottins containing scrambled RDG control loops. […] In one example, c(RGDyK) dimers and higher order oligomers have been created by chemical conjugation through addition of a glutamate branching residue.

Setting [9] is: U87MG xenograft mice, summary of imaging and biodistribution.

Where two headings read alike, the source gives them in different places. Where a SMILES comes first, the peptide text is derived from it. Bridges are numbered along the chain shown (N, C = ends). Where no end group is shown, it is not given here. The star is where a group is joined. DOTA = O=C(O)CN1CCN(CC(=O)O)CCN(CC(=O)*)CCN(CC(=O)O)CC1

For the molecule `CSCC[C@@H]1NC(=O)[C@H](CC(=O)O)NC(=O)CNC(=O)[C@H](CCCNC(=N)N)NC(=O)[C@H](C)NC(=O)[C@H](CCC(=O)O)NC(=O)[C@H](CCCNC(=N)N)NC(=O)[C@@H]2CSSC[C@@H]3NC(=O)[C@H](CO)NC(=O)[C@H]([C@@H](C)O)NC(=O)[C@@H]4CCCN4C(=O)[C@H](C)NC(=O)[C@H](Cc4c[nH]c5ccccc45)NC(=O)[C@H](CC(=O)O)NC(=O)CNC(=O)[C@H](CCCNC(=N)N)NC(=O)CNC(=O)[C@H](CCC(N)=O)NC(=O)[C@@H]4CCCN4C(=O)[C@@H](NC(=O)CNC(=O)CN4CCN(CC(=O)O)CCN(CC(=O)O)CCN(CC(=O)O)CC4)CSSC[C@H](NC(=O)CNC(=O)[C@H](C)NC(=O)[C@H](CC(C)C)NC(=O)[C@H](CSSC[C@@H](C(=O)NCC(N)=O)NC(=O)[C@H]([C@@H](C)O)NC(=O)[C@H](CCCNC(=N)N)NC(=O)[C@@H]4CCCN4C1=O)NC(=O)[C@H](CC(=O)O)NC(=O)[C@H](CO)NC(=O)[C@H](CC(=O)O)NC(=O)[C@H](CCC(N)=O)NC(=O)[C@H](CO)NC3=O)C(=O)N[C@@H](C(C)C)C(=O)N2` [DOTA-3-4A] ({DOTA}-GCPQGRGDWAPTSCSQDSDCLAGCVCREARGDMPRTCG-NH2; disulfide 2-24, 14-26, 20-37), the 50% inhibitory concentration (IC50) in series [1] amounted to 8 ± 1 nM.
As for `CSCC[C@@H]1NC(=O)[C@H](CC(=O)O)NC(=O)CNC(=O)[C@H](CCCNC(=N)N)NC(=O)[C@H](C)NC(=O)[C@H](CCC(=O)O)NC(=O)[C@H](CCCNC(=N)N)NC(=O)[C@@H]2CSSC[C@@H]3NC(=O)[C@H](CO)NC(=O)[C@H]([C@@H](C)O)NC(=O)[C@@H]4CCCN4C(=O)[C@H](C)NC(=O)[C@H](Cc4c[nH]c5ccccc45)NC(=O)[C@H](CC(=O)O)NC(=O)CNC(=O)[C@H](CCCNC(=N)N)NC(=O)CNC(=O)[C@H](CCC(N)=O)NC(=O)[C@@H]4CCCN4C(=O)[C@@H](NC(=O)CNC(=O)CN4CCN(CC(=O)O)CCN(CC(=O)O)CCN(CC(=O)O)CC4)CSSC[C@H](NC(=O)CNC(=O)[C@H](C)NC(=O)[C@H](CC(C)C)NC(=O)[C@H](CSSC[C@@H](C(=O)NCC(N)=O)NC(=O)[C@H]([C@@H](C)O)NC(=O)[C@H](CCCNC(=N)N)NC(=O)[C@@H]4CCCN4C1=O)NC(=O)[C@H](CC(=O)O)NC(=O)[C@H](CO)NC(=O)[C@H](CC(=O)O)NC(=O)[C@H](CCC(N)=O)NC(=O)[C@H](CO)NC3=O)C(=O)N[C@@H](C(C)C)C(=O)N2` [^64Cu-DOTA-knottin 3-4A, metal not drawn] ({DOTA}-GCPQGRGDWAPTSCSQDSDCLAGCVCREARGDMPRTCG-NH2; disulfide 2-24, 14-26, 20-37), the amount remaining at 4 h in series [2] (4 h, read-out: intact probe remaining in serum, 4 h) was 55%. Further, the “intact probe remaining in serum, 24 h” value in series [2] (24 h) is on record as around 30%. The amount remaining at 24 h in series [2] (24 h, read-out: intact probe remaining in serum, 24 h) amounted to 30%. In the series with U87MG tumor xenografts [3] (U87MG xenograft mice), the “kidney uptake, microPET, 1 h post injection” value is 10-12 %ID/g and the “kidney uptake, microPET, 24 h post injection” value is reported as 3–4 %ID/g. The “liver uptake, microPET, throughout the imaging study” value in the series on U87MG tumor xenografts [3] (U87MG xenograft mice, 1-24 h) is around 2 %ID/g. Besides, in the series with U87MG tumor xenografts [3] (setting [9]), the “kidney uptake, 1−4 h post-injection (summary in discussion)” value is on record as 8–12 %ID/g; the “kidney uptake, 24 h (summary in discussion)” value is given as 2–4 %ID/g; the “liver uptake (summary in discussion)” value is given as 1–2 %ID/g. The “tumor uptake, microPET, 1 h post injection” value in the series on U87MG tumor xenografts [3] (U87MG xenograft nude mice, tail vein ∼100 µCi, n = 3, mean ± SD) came to 3.51±0.83 %ID/g. In addition, the “tumor uptake, microPET, 24 h post injection” value with U87MG tumor xenografts [3] (U87MG xenograft nude mice, tail vein, n = 3, mean ± SD) is 1.97±0.24 %ID/g. Besides, the “tumor uptake, microPET, 1 h post injection, blocked” value in the series with U87MG tumor xenografts [3] (co-injection of 1000-fold molar excess of unlabeled c(RGDyK) (330 µg), p<0.05) is recorded as 0.53± 0.03 %ID/g. Also, the tumor washout rate in series [4] (calculated from 1 h and 24 h tumor radioactivity, read-out: radiotracer washout rate from tumor, biodistribution) was 0.06 %ID/g. In addition, the tissue to tissue ratio at 4 h in series [4] (tumor / muscle, read-out: tumor-to-muscle (T/M) ratio, 4 h post injection) is 31 ± 7. In series [4] (tumor / whole blood, read-out: tumor-to-blood (T/B) ratio, 4 h post injection), the tissue to tissue ratio at 4 h was found to be 27 ± 3. Also, the “muscle radioactivity, biodistribution” value in the series with U87MG tumor xenografts [5] (U87MG xenograft mice) is recorded as below 0.4 %ID/g. The “heart radioactivity, biodistribution, throughout the study” value in the series with U87MG tumor xenografts [5] (U87MG xenograft mice, 1-24 h) was around 0.3 %ID/g. For the same molecule, in the series on U87MG tumor xenografts [5] (U87MG xenograft mice, n = 3), the “liver radioactivity, biodistribution, 1 h post injection” value was around 1 %ID/g; the “liver radioactivity, biodistribution, 24 h post injection” value is around 2 %ID/g; the “lung radioactivity, biodistribution, 1 h post injection” value is listed as around 1 %ID/g; the “lung radioactivity, biodistribution, 24 h post injection” value is around 0.6 %ID/g. Besides, in the series with U87MG tumor xenografts [5] (U87MG xenograft mice, n = 3, mean ± SD), the “kidney radioactivity, biodistribution, 24 h post injection” value was determined as 2.67±0.22 %ID/g. Moreover, the “tumor uptake, biodistribution, 24 h post injection” value in the series on U87MG tumor xenografts [5] (U87MG xenograft nude mice, gamma counting, n = 3, mean ± SD) worked out at 2.56±0.40 %ID/g. Besides, the “tumor uptake, biodistribution, 1 h post injection” value with U87MG tumor xenografts [5] (U87MG xenograft nude mice, tail vein ∼50–100 µCi, gamma counting, n = 3, mean ± SD) worked out at 3.92±0.70 %ID/g. The “tumor uptake, biodistribution, 1 h post injection, blocked” value in the series on U87MG tumor xenografts [5] (co-injection of 1000-fold molar excess of unlabeled c(RGDyK) (330 µg), n = 3, p<0.05) stood at 0.66±0.17 %ID/g. Further, the “intact radiotracer recoverable from liver, 1 h post injection” value in series [6] (U87MG xenograft mice, tail vein 200–400 µCi, liver homogenate in DMF, reversed-phase HPLC and gamma counting) was below 40%. In addition, in series [6] (U87MG xenograft mice, tail vein 200–400 µCi, tumor homogenate in DMF, reversed-phase HPLC and gamma counting), the “intact radiotracer recoverable from tumor, 1 h post injection” value is below 40%. The “metabolic stability, kidneys, 1 h post injection” value in series [6] (kidney homogenate, radio-HPLC, result in words) is “a hydrophilic metabolite (or free copper) is responsible for the majority of the radioactive signal”. Also, the “metabolic stability, urine, 1 h post injection” value in series [6] (urine samples, radio-HPLC, result in words) is “intact knottin radiotracer is excreted through the bladder”. Moreover, the “tumor uptake, 1 h post injection” value in series [7] came out at 0.82±0.05 %ID/g.
Consider “ECESGPCCRNCKFLKEGTICKRARGDDMDDYCNGKTCDCPRNPHKGPAT (disulfide 2-11, 7-32, 8-37, 20-39 (inferred)) [Echistatin, reference compound]”, for which, in series [1], the IC50 was found to be 4.9 ± 0.1 nM.
For the molecule c(RGDyK), the IC50 in series [8] is 203 ± 32 nM.
